Residue numbers refer to the chain shown, from its start.

The chains are these.
B1: 9C8-VGSKE-Fab-LONG: antibody Fab fragment; VH SEQ ID NO: 78, VL SEQ ID NO: 96; sequence in Table 3 (antibody, V domains shown)
VH: QVQLQESGPGLVKPSETLSLTCAVSGYSISSGYYWGWIRQPPGKGLEWIGSIYHSGNTYYSPSLQSRVTISVDTSKNQFSLKLSSVTAADTAVYYCARGGDFDILTGYYKGWFEPWGQGTLVTVSS
VL: AIQLTQSPSSLSASVGDRVTITCRASQGISSALAWYQQKPGKAPKLLIYDASSLESGVPSRFSGSGSGTDFTLTISSLQPEDFATYYCQQFNSYPQTFGQGTKVEIK
B2: 26D5-295-C08-Fab-LONG: antibody Fab fragment; VH SEQ ID NO: 62, VL SEQ ID NO: 88; sequence in Table 3 (antibody, V domains shown)
VH: EVQLVESGGGLIQPGGSLRLSCAASGFQVSSNAMSWVRQAPGKGLEWVSFIYPGGRTYYADSVKGRFTISRDNSKNTLYLQMNSLRAEDTAVYYCARGGFGGGDYWGQGTLVTVSS
VL: B1 VL with A1D, L4M, L11V, A32N, D50A, E55Q, F91A, Y94F, Q96L, Q100G
B3: 26D5-GVR-H-Fab-LONG: antibody Fab fragment; VH SEQ ID NO: 81, VL SEQ ID NO: 98; sequence in Table 3 (antibody, V domains shown)
VH: B2 VH with Q28T, S31R, A33Y, P53S
VL: DIQMTQSPSSVSASVGDRVTITCRASQGISSWLAWYQHKPGKAPKLLIYAASSLQSGVPSRFSGSGSGTDFTLTISSLQPEDFATYYCQQANSFPLTFGGGTKVEIK
B4: 26D5-GVR-Q-FT-Fab-LONG: antibody Fab fragment; VH SEQ ID NO: 81, VL SEQ ID NO: 99; sequence in Table 3 (antibody, V domains shown)
VH: B2 VH with Q28T, S31R, A33Y, P53S
VL: B3 VL with H38Q
B5: 24H1-GQTV-Fab-LONG: antibody Fab fragment; VH SEQ ID NO: 80, VL SEQ ID NO: 98; sequence in Table 3 (antibody, V domains shown)
VH: B2 VH with Q28T, S31R, A33Y, P53S, R56S
VL: B3 VL
B6: 26D5-GVR-Q-FT-Fab-SHORT: antibody Fab fragment; VH SEQ ID NO: 81, VL SEQ ID NO: 99; sequence in Table 3 (antibody, V domains shown)
VH: B2 VH with Q28T, S31R, A33Y, P53S
VL: B3 VL with H38Q
B7: 26D5-295-B08-Fab-LONG: antibody Fab fragment; VH SEQ ID NO: 60, VL SEQ ID NO: 88; sequence in Table 3 (antibody, V domains shown)
VH: B2 VH with Q28T, G98A
VL: B3 VL with W32N, H38Q
B8: 26D5-75229-343-A10-mAb: human IgG1f/kappa mAb; VH SEQ ID NO: 52, VL SEQ ID NO: 84 (antibody, V domains shown)
VH: B2 VH with Q28T, F50Y, G98A, G103P
VL: B3 VL with W32N, H38Q, S93Q
B9: 26D5-75202-343-A09-mAb: human IgG1f/kappa mAb; VH SEQ ID NO: 54, VL SEQ ID NO: 86 (antibody, V domains shown)
VH: B2 VH with Q28T, F50Y, G98A
VL: B3 VL with S30Y, W32N, H38Q, S93E
B10: 26D5-75203-343-B09-mAb: human IgG1f/kappa mAb; VH SEQ ID NO: 54, VL SEQ ID NO: 87 (antibody, V domains shown)
VH: B2 VH with Q28T, F50Y, G98A
VL: B3 VL with W32N, H38Q, S53T, S93E
B11: 26D5-75214-343-F06-mAb: human IgG1f/kappa mAb; VH SEQ ID NO: 53, VL SEQ ID NO: 85 (antibody, V domains shown)
VH: B2 VH with Q28T, G98A, G103P
VL: B3 VL with W32N, H38Q, S93E

The first data set can be described thus: SPR (Biacore) on chip coated with BSA conjugated to COMPOUND 2. The note with it: 25° C.; Fab over COMPOUND 2-BSA surface; apparent. Type of data set: binding. As to the method: The binding of the first round affinity matured antibody Fab fragments to conjugated versions of Compound A was examined by SPR (Biacore™) using a CM5 S-series sensor chip (Cytiva, Cat. No. 29149603) coated with BSA previously conjugated to COMPOUND 2, COMPOUND 3 or COMPOUND 1. The immobilization level was 150-250 RUs. The running buffer was 1×PBS (phosphate buffered saline, pH 7.4) with 0.05% Tween 20. […] The antibody Fab fragment at a concentration of between 200-0.8 nM was injected over the BSA-compound coated surface for 2 minutes at a flow rate of 30 uL/min. The antibody Fab fragment was then allowed to dissociate for 15 minutes. The chip surface was regenerated after each cycle with a 1 minute pulse of 10 mM Glycine, pH 2, and a 1 minute pulse of 50 mM NaOH. All experiments were run on the same equipment and analyzed with the same software as described before. Apparent affinities were determined for rank ordering only since dissociation rates were too slow to be measured by Biacore. Comparative experiments with selected mAbs were also conducted in a similar fashion (see FIG. 11).
As for B1, the “Ka” value came out at 400000 M⁻¹ s⁻¹ and the “koff, dissociation rate constant” value turned out to be 0.00087 s⁻¹.

The same data set, now with this note: 25° C.; Fab over COMPOUND 2-BSA surface; apparent affinity.
Take B1: the Kd worked out at 2.1 nM.

Staying with this data set, now noted: 37° C.; Fab over COMPOUND 2-BSA surface; apparent.
For B2, the “Ka” value stood at 280000 M⁻¹ s⁻¹ and the “koff, dissociation rate constant” value was found to be 8.5e-05 s⁻¹.
In the case of B3, the “Ka” value stood at 280000 M⁻¹ s⁻¹ and the “koff, dissociation rate constant” value was determined as 0.001 s⁻¹.
Taken in the same sequence, the figures for B4 were 1.3e+06 M⁻¹ s⁻¹ and 0.0016 s⁻¹.
For B5, the “Ka” value is 790000 M⁻¹ s⁻¹ and the “koff, dissociation rate constant” value amounted to 0.001 s⁻¹.
Taken in the same sequence, the figures for B6 were 1.6e+06 M⁻¹ s⁻¹ and 0.0013 s⁻¹.
Taken in the same sequence, the figures for B7 were 280000 M⁻¹ s⁻¹ and 0.00022 s⁻¹.

The data set is the same for the next values; noted with them: 37° C.; Fab over COMPOUND 2-BSA surface; apparent affinity.
B2: the Kd came out at 0.3 nM.
As to B3, the Kd came to 3.5 nM.
Same read-out and setting: the result for B4 reads 1.3 nM.
On to B5, for which the Kd stood at 1.3 nM.
Same read-out and setting: in the case of B6 it was 0.9 nM.
As for B7, the Kd was 0.8 nM.

The next data set can be described thus: SPR (Biacore) Protein A mAb capture, Compound A injected. The settings on record: 37° C., binding to Compound A, apparent affinity, for rank ordering only, read-out: KD. The essentials:
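Parent and affinity-matured IgG1f mAbs were captured at 2 ug/mL on a high-density protein A chip. Compound A was injected at 100–3 nM for 2 min, with at least 450 s dissociation, at 37 °C in PBS pH 7.4 with 0.05% Tween 20 and 2% DMSO. Apparent affinities were used for rank ordering only, because off-rates were too slow to measure.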
For orientation: Surface plasmon resonance follows binding to a sensor surface in real time, without labels.
On to B8, for which the Kd was less than 0.07 nM.
Same read-out and setting: the result for B9 reads less than 0.09 nM.
In the case of B10, the Kd is less than 0.05 nM.
Same read-out and setting: in the case of B11 it was less than 0.05 nM.

The same data set, now with this note: 37° C., binding to Compound A, apparent, for rank ordering only.
Regarding B8, the “Ka” value worked out at 770000 M⁻¹ s⁻¹ and the “Kd” value was less than 5e-05 s⁻¹.
Turning to B9, the “Ka” value is 590000 M⁻¹ s⁻¹ and the “Kd” value is less than 5e-05 s⁻¹.
On the same counts, the results for B10 are 1.2e+06 M⁻¹ s⁻¹ and less than 5e-05 s⁻¹.
On the same counts, the results for B11 are 1.2e+06 M⁻¹ s⁻¹ and less than 5e-05 s⁻¹.

Another data set can be described thus: Competitive TR-FRET assay modified for mAbs and Fabs (T0, T24, T48). It counts as binding. The settings on record: 37° C.; 24 hr; read-out: T24 hr IC50. As to the method:
A competitive TR-FRET (time-resolved fluorescence resonance energy transfer) assay was developed to rank-order the dissociation of α-Compound A mAbs from Compound A as equilibrium is reached at 37° C. The assay buffer was HBS-N (10 mM HEPES, 150 mM NaCl, pH 7.4; GE Healthcare), 0.1% (w/v) BSA (bovine serum albumin; Sigma), 2% DMSO (dimethyl sulfoxide; Sigma). All reagents were prepared in assay buffer and dispensed in equal volumes into white 384 microplates with final volume of 20 μl per well at the following final concentrations: 4 nM COMPOUND 5, the biotinylated analog of COMPOUND 2, a 100 0.1 nM 7-pt titration of human α-Compound A antibodies, 0.1 nM europium-labeled α-mouse IgG (LANCE Eu-W1024; PerkinElmer), 5 nM streptavidin-D2 (Cisbio), and 4 nM mAb 26D5 VH_A10G_Y33A_S53P_M89V_G95A; VK_W32N_H38Q (P1-075621, the second-round optimization parent 26D5-295-B08 formatted with mouse IgG Fc). COMPOUND 5 and α-Compound A antibody titrations were added first to the microplate, and were subjected to an initial incubation at 37° C., 1000 rpm, for one hour to facilitate antibody binding to the compound. After the initial incubation period, the europium α-mouse IgG, streptavidin-D2, and 26D5-mouse IgG (P1-075621) were added sequentially, then the plate was returned to 37° C., 1000 rpm incubation. Microplates were read using a Perkin Elmer EnVision plate reader, and the measured FRET signal was defined as [665 nm]/[620 nm]*10,000. Microplates were read at 30 minutes (T0) and after 24 hour (T24) intervals. For each antibody titration, the FRET signal was converted to % Inhibition relative to wells without α-Compound A antibody: (100 ((FRET at [antibody concentration]/FRET at 0 nM)*100). The % inhibition antibody titrations were plotted using TIBCO Spotfire (v.7), and the IC50 was determined using a 4-parameter model curve fit. The IC50s at each timepoint were reported, as well as the IC50 curve shift relative to T0. An IC50 curve shift indicated α-Compound A antibody dissociation from the biotinylated compound as the assay reached equilibrium, which subsequently allowed 26D5-mouse IgG1 (P1-075621) competitor to bind and generate the FRET signal detected in the assay.
The competitive TR-FRET assay defined above was also modified to assess optimized 26D5 antibody progeny that were reformatted as Fabs. The α-Compound A antibody and Fab titration series were extended to 250 0.244 nM (11-pt titration), and replicates of each concentration were collected in quadruplicate. The assay incubation was extended to include an additional 48 hr timepoint to ensure equilibrium was reached, and T48 hr IC50 and IC50 shifts were reported. The % inhibition titrations were plotted in Graphpad Prism (v.8) and fit to a 4-parameter model. All other experimental setup conditions were otherwise identical to the antibody TF-FRET assay.
Competitive FRET data collected for affinity-optimized α-Compound A 26D5 progeny comparing human antibodies and Fabs are shown in FIG. 14 and Table 13. Each panel represents a single α-Compound A sequence, with antibody (mAb, solid lines, circles) and Fab (dotted lines, triangles) formats overlaid. […] The names of the mAbs/Fabs in Table 13 refer to the corresponding sequences in Tables 1-3. All mAbs listed in Table 13 were in a human IgG1f/LC kappa format.
Background: Time-resolved FRET reads energy transfer from a long-lived donor to a nearby acceptor.
One may read the IC50 as the midpoint of a concentration-inhibition curve. As for B8, the IC50 is 2.4 nM.
For the molecule B9, the IC50 turned out to be 2.5 nM.
The same measure, in the same setting: in the case of B10 it was 3 nM.
As for B11, the IC50 turned out to be 2.5 nM.

The data set is the same for the next values; noted with them: 37° C.; 48 hr; read-out: T48 hr IC50.
Turning to B8, the IC50 was determined as 2.5 nM.
Take B9: the IC50 is 2.9 nM.
For the molecule B10, the IC50 came out at 3.1 nM.
B11: the IC50 was 2.7 nM.

Staying with this data set, now noted: 37° C.; IC50 shift at 24 hr relative to T0.
For the molecule B8, the “T24 hr IC50 shift” value came to 1.1 nM.
The same measure, in the same setting: in the case of B9 it was 1.1 nM; in that of B10, 0.4 nM; in that of B11, 1.3 nM.

The same data set, now with this note: 37° C.; IC50 shift at 48 hr relative to T0.
As for B8, the “T48 hr IC50 shift” value came out at 1.1 nM.
On the same count and under the same terms, in the case of B9 it was 1.5 nM; in that of B10, 0.5 nM.
On the same count and under the same terms, the result for B11 reads 1.4 nM.

Staying with this data set, now noted: 37° C.; read at 30 minutes (T0); competitor 26D5-mouse IgG (P1-075621); read-out: T0 IC50.
Consider B8, for which the IC50 came to 1.3 nM.
On the same count and under the same terms, in the case of B9 it was 1.4 nM; in that of B10, 2.6 nM; in that of B11, 1.3 nM.

For the origin of these results see patent publication US12065505B2, “Antibodies and antigen binding peptides for factor XIa inhibitors and uses thereof” (Bristol-Myers Squibb Company, priority 2021, dated 2024).
